From PMC2133975 come the findings set out here.

For test [1], the target named is axonin-1, recombinant, expressed on the surface of COS-7 cells (chicken) (UniProt P28685). The test can be described thus: binding of protein-conjugated fluorescent microspheres.
For test [2], the target named is NgCAM, recombinant, expressed on the surface of COS-7 cells (chicken). Described as above.

Regarding “NgCAM purified from chicken brain membranes, conjugated to Covaspheres (from UniProt Q03696 21-1266) (natural protein)”, the percent of expressing cells that bound Covaspheres turned out to be 15% in test [1] and 61% in test [2].

B1: axonin-1 purified from the ocular vitreous fluid of chicken embryos, conjugated to Covaspheres (natural protein)
chain: QSGMRSYGPVFEEQPAHTLFPEGSAEEKVTLTCRARANPPATYRWKMNGTELKMGPDSRYRLVAGDLVISNPVKAKDAGSYQCVATNARGTVVSREASLRFGFLQEFSAEERDPVKITEGWGVMFTCSPPPHYPALSYRWLLNEFPNFIPADGRRFVSQTTGNLYIAKTEASDLGNYSCFATSHIDFITKSVFSKFSQLSLAAEDARQYAPSIKAKFPADTYALTGQMVTLECFAFGNPVPQIKWRKLDGSQTSKWLSSEPLLHIQNVDFEDEGTYECEAENIKGRDTYQGRIIIHAQPDWLDVITDTEADIGSDLRWSCVASGKPRPAVRWLRDGQPLASQNRIEVSGGELRFSKLVLEDSGMYQCVAENKHGTVYASAELTVQALAPDFRLNPVKRLIPAARSGKVIIPCQPRAAPKATVLWTKGTELLTNSSRVTITADGTLILQNISKSDEGKYTCFAENFMGKANSTGILSVRDATKITLAPSSADINVGENLTLQCHASHDPTMDLTFTWSLDDFPIDLDKSEGHYRRASVKEAVGDLAIVNAQLKHSGRYTCTAQTVVDSTSESATLTVRGPPGPPGGVVVRDIGDTTVQLSWSRGFDNHSPIARYSIEARTLLSNKWKQMRTNPVNIEGNAETAQVVNLIPWMDYEFRVLASNILGVGEPSLPSSKIRTKEAAPTVAPSGLGGGGGAPNELIINWTPTLRDYQNGDGFGYILSFRKKGTQGWLTARVPHAESLHYVYRNESIGPYTPFEVKIKAYNRKGEGPESLTAIVYSAEEEPKVAPFRVTAKAVLSSEMDVSWEPVEQGDMTGVLLGYEIRYWKDGDKEEAADRVRTAGLVTSAHVTGLNPNTKYHVSVRAYNRAGAGPPSPSTNITTTKPPPRRPPGNISWTLTGSTVTIKWDPVVAQADESAVTGYKMLYRQDSHSAPTLYLASKSRIDIPVPEDFTHAFVQIRVTGPGGDGTPAEVHIVRNSGTSMMVEDSVTRPVPHAAIITTNSLAMVALIRYLEL
For B1, the percent of expressing cells that bound Covaspheres in test [2] worked out at 53%.
